Positions count from the first letter of the chain named. Each block holds one binder with its values, some of them ahead of it.
Assays:
[1] = target: recombinant human CTLA-4 protein (human) (UniProt P16410); experiment: SPR (Pioneer FE, OneStep), 25 C; 3xFLAG scFv captured by anti-FLAG M2, human CTLA-4 as analyte
[2] = target: recombinant mouse CTLA-4 protein (mouse) (UniProt P09793); experiment: SPR (Pioneer FE, OneStep), 25 C; 3xFLAG scFv captured by anti-FLAG M2, mouse CTLA-4 as analyte
recombinant mouse CTLA-4 protein (mouse), sequence (P09793 36-161 limits assumed): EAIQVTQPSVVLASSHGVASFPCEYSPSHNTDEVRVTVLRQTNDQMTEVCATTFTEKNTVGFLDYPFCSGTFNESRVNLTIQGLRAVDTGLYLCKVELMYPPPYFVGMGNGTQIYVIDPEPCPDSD

recombinant human CTLA-4 protein (human), sequence (P16410 36-161 limits assumed): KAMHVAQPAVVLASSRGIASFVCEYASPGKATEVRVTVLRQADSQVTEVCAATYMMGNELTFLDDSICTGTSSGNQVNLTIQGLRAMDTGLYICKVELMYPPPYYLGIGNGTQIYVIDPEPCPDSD

B2: 78-8 scFv (scFv, part only; not given: Linker, domain order, 3xFLAG tag, V domains shown, not shown: another chain or arm of the molecule; small tags and cut ends)
VH: EVQLVESGGGLVQPGGSLRLSCAASGFTFSSYVMHWVRQAPGKGLEWVSAISGSGGGTYYADSVKGRFTISRDNSKNTLYLQMNSLRAEDTAVYYCARGRLIGLALYGEAFDVWGQGTLVTVSS
VL: DIQMTQSPSSLSASVGDRVTITCQASKDISNYLNWYQQKPGKAPKLLIYDASNLETGVPSRFSGSGSGTDFTFTISSLQPEDIATYYCQQFNSFPLTFGQGTKVEIK
Kd [1]: 168 nM | Kd [2]: 0.06 nM

B3: 78-8D10 scFv (scFv, part only; not given: Linker, domain order, 3xFLAG tag, V domains shown, not shown: another chain or arm of the molecule; small tags and cut ends)
VH: MEVQLVESGGGLVQPGGSLRLSCAASGFTFSSYVMHWVRQAPGKGLEWVSAISWSGRGTYYADSVKGRFTISRDNSKNTLYLQMNSLRAEDTAVYYCARGRLFGLALYGEAFDVWGQGTLVTVSS
VL: B2 VL
Kd [1]: 0.58 nM | Kd [2]: 0.49 nM

B4: 78-24D8 scFv (scFv, part only; not given: Linker, domain order, 3xFLAG tag, V domains shown, not shown: another chain or arm of the molecule; small tags and cut ends)
VH: EVQLVKSGGGLVQPGGSLRLSCAASGFTFSSYSMHWVRQAPGKGLEWVSGISGSGRSTSYADSVKGRFTISRDNSKNTLYLQMNSLRAEDTAVYYCARDLMAFNLTRTGGFDVWGQGTLVTVSS
VL: B2 VL with K27Q, S76N, F91G, N92D, S93A, F94W, L96W
Kd [1]: 1.46 nM | Kd [2]: 0.01 nM

B8: 78-8D2 scFv (scFv, part only; not given: Linker, domain order, 3xFLAG tag, V domains shown, not shown: another chain or arm of the molecule; small tags and cut ends)
VH: B2 VH with S52T, G53W, G56R, I102F
VL: B2 VL with T74I
Kd [1]: 0.37 nM | Kd [2]: 0.3 nM

B10: 78-24D17 scFv (scFv, part only; not given: Linker, domain order, 3xFLAG tag, V domains shown, not shown: another chain or arm of the molecule; small tags and cut ends)
VH: B4 VH with K6E, Y32S, R56G, D99Y, A102S, G109S, G110W
VL: B2 VL with K27Q, D28A, F91G, N92D, S93A, F94W, L96W
Kd [1]: 0.87 nM | Kd [2]: 1.06 nM

B11: 78-36 scFv (scFv, part only; not given: Linker, domain order, 3xFLAG tag, V domains shown, not shown: another chain or arm of the molecule; small tags and cut ends)
VH: MEVQLVESGGGLVQPGGSLRLSCVASGFTFSSYYMHWVRQAPGKGLEWVSAISGSGGSTYYADSVKGRFTISRDNSKNTLYLQMNSLRAEDTAVYYCARGRQVGKSSFGEAFDVWGQGTLVTVSS
VL: B2 VL with K27Q, N92T, L96Y
Kd [2]: 0.98 nM

B14: 78-8D5 scFv (scFv, part only; not given: Linker, domain order, 3xFLAG tag, V domains shown, not shown: another chain or arm of the molecule; small tags and cut ends)
VH: B2 VH with G53W, I102F
VL: B2 VL
Kd [1]: 0.74 nM | Kd [2]: 0.42 nM

B15: 78-8D4 scFv (scFv, part only; not given: Linker, domain order, 3xFLAG tag, V domains shown, not shown: another chain or arm of the molecule; small tags and cut ends)
VH: B2 VH with S52T, G53W, I102F, A105V, L106R
VL: B2 VL
Kd [1]: 0.21 nM | Kd [2]: 0.2 nM

B16: 78-8D22 scFv (scFv, part only; not given: Linker, domain order, 3xFLAG tag, V domains shown, not shown: another chain or arm of the molecule; small tags and cut ends)
VH: B2 VH with G53W, G56S, I102F, L106R
VL: B2 VL with P95A
Kd [1]: 0.16 nM | Kd [2]: 0.37 nM

Further binders by falling Kd [2], results first:

Kd [2]: 2.57 nM
B5: 78-28 scFv (scFv, part only; not given: Linker, domain order, 3xFLAG tag, V domains shown, not shown: another chain or arm of the molecule; small tags and cut ends)
VH: EVQLVESGGGLVQPGGSLRLSCAASGFTFSSYYMHWVRQAPGKGLEWVSAIYGNGGYTYYADSVKGRFTISRDNSKNTLYLQMNSLRAEDTAVYYCARGRPARHQVGFDVWGQGTLVTVSS
VL: B2 VL with K27L, F91L, N92Y, S93T, F94V

Kd [1]: 1.18 nM | Kd [2]: 1.11 nM
B7: 78-24D9 scFv (scFv, part only; not given: Linker, domain order, 3xFLAG tag, V domains shown, not shown: another chain or arm of the molecule; small tags and cut ends)
VH: B4 VH with K6E, Y32S, S54W, R56G, D99Y, A102S, G110W
VL: B2 VL with K27Q, S30A, F91S, N92D, S93A, F94W, L96W

Kd [1]: 0.3 nM | Kd [2]: 0.39 nM
B12: 78-8D7 scFv (scFv, part only; not given: Linker, domain order, 3xFLAG tag, V domains shown, not shown: another chain or arm of the molecule; small tags and cut ends)
VH: B2 VH with G53W, G56A, I102F, L104R
VL: B2 VL with N31I, S52F, P59S

Kd [1]: 0.24 nM | Kd [2]: 0.19 nM
B6: 78-8D6 scFv (scFv, part only; not given: Linker, domain order, 3xFLAG tag, V domains shown, not shown: another chain or arm of the molecule; small tags and cut ends)
VH: B2 VH with A23V, G53W, I102F
VL: B2 VL with D50N

Kd [1]: 0.32 nM | Kd [2]: 0.17 nM
B1: 78-8D14 scFv (scFv, part only; not given: Linker, domain order, 3xFLAG tag, V domains shown, not shown: another chain or arm of the molecule; small tags and cut ends)
VH: B2 VH with G53W, G56R, I102F, L106R
VL: B2 VL with K27R

Kd [1]: 1.15 nM | Kd [2]: 0.059 nM
B9: 78-24D1 scFv (scFv, part only; not given: Linker, domain order, 3xFLAG tag, V domains shown, not shown: another chain or arm of the molecule; small tags and cut ends)
VH: B4 VH with K6E, S30T, T108A
VL: B2 VL with K27Q, Y32F, F91G, N92D, S93A, F94W, L96W

Kd [1]: 2.88 nM | Kd [2]: 0.01 nM
B13: 78-24D12 scFv (scFv, part only; not given: Linker, domain order, 3xFLAG tag, V domains shown, not shown: another chain or arm of the molecule; small tags and cut ends)
VH: B4 VH with K6E, R56L
VL: B2 VL with K27H, S30L, F91G, N92H, S93A, F94W, P95L, L96W
